This note sets out measurements from paper PMC11401227, “The structure of DNA methyltransferase DNMT3C reveals an activity-tuning mechanism for DNA methylation” (The Journal of Biological Chemistry, 2024).

The data set deals with the molecule itself. Kind of data set: crystal structure; DNMT3C MTase domain-hDNMT3L C-terminal domain covalently bound to a 25-mer ZpG/CpG DNA, with SAH; 3.2 Å; crystals grown at 4 °C.

B1: mouse DNMT3C MTase domain (residues 456–740) (domain or fragment, UniProt P0DOY1 456-740, looked up)
chain: AAKRRPIRVLSLFDGIATGYLVLKELGIKVEKYIASEVCAESIAVGTVKHEGQIKYVDDIRNITKEHIDEWGPFDLVIGGSPCNDLSCVNPVRKGLFEGTGRLFFEFYRLLNYSCPEEEDDRPFFWMFENVVAMEVGDKRDISRFLECNPVMIDAIKVSAAHRARYFWGNLPGMNRPVMASKNDKLELQDCLEFSRTAKLKKVQTITTKSNSIRQGKNQLFPVVMNGKDDVLWCTELERIFGFPEHYTDVSNMGRGARQKLLGRSWSVPVIRHLFAPLKDHFACE
notes: DNA methyltransferase DNMT3C, mouse, MTase domain, residues 456-740; synthetic DNA fragment; The His6-SUMO tag was still on the chain in the Ni-NTA co-purification step and was removed by ULP1 afterwards; also called DNMT3C methyltransferase domain; WT DNMT3C; source: E. coli BL21 (DE3) RIL, co-expressed with DNMT3L, purified (Ni-NTA, Heparin, SEC); not shown: His6-SUMO, N-terminal, cleaved
With B1, the binding result is listed as “binds”.
